{
  "source": "patent US9234007B2",
  "about": "“RGD mimetic γ-AApeptides and methods of use” (UNIVERSITY OF SOUTH FLORIDA, priority 2012, dated 2016)",
  "key": {"in vivo": {"assay": "in vivo", "design": "species or system mice", "conditions": "female, nude, mouse, iv, 10 mg/kg, total radioactivity", "method": "(§1) PET scans at various time points post-injection (p.i.), as well as quantitative region-of-interest (ROI) analysis of the PET data, were performed as described previously.^14 Coronal and transaxial PET slices that contain the U87MG tumors are shown in FIG. 5A, and the quantitative data are shown in FIGS. 5B and 5C. […] PET scans were performed using an Inveon microPET/microCT rodent model scanner (Siemens Medical Solutions USA, Inc.). Each U87MG tumor-bearing mouse was injected with 5-10 MBq of the PET tracer via tail vein and 5 minute static PET scans were performed at various time points post-injection (p.i.). The images were reconstructed using a maximum a posteriori (MAP) algorithm, with no attenuation or scatter correction. For each microPET scan, three-dimensional (3D) regions-of-interest (ROIs) were drawn over the tumor and major organs by using vendor software (Inveon Research Workplace [IRW]) on decay-corrected whole-body images. Assuming a tissue density of 1 g/mL, the ROIs were converted to MBq/g using a conversion factor (pre-determined using a 20 mL centrifuge tube filled with ˜37 MBq of ^64CuCl2 as a phantom), and then divided by the total administered radioactivity to obtain an image ROI-derived percentage injected dose per gram of tissue (% ID/g)."}, "integrin αvβ3": {"tested_on": "integrin αvβ3", "assay": "in vivo", "design": "species or system mice", "conditions": "mouse, iv; for Liver uptake, blocking group / Radioactivity in the blood, blocking group / U87MG tumor uptake, blocking: 10 mg/kg", "method": "as §1"}},
  "data": [
    {"molecule": "N=C(N)NCCC(=O)N(CC(=O)NCCN(CC(N)=O)C(=O)CC(=O)O)C[C@H](Cc1ccccc1)NC(=O)CCCCCNC(=O)CN1CCN(CC(=O)O)CCN(CC(=O)O)CCN(CC(=O)O)CC1", "note": "[^64Cu-γ-AA2, metal not drawn]", "values": [
      {"measurement": "tissue uptake at 0.5 h", "setting": "in vivo", "value": "0.5 ± 0.1", "unit": "%ID/g"},
      {"measurement": "clearance route", "setting": "integrin αvβ3", "value": "both hepatobiliary and renal clearance"},
      {"measurement": "Liver uptake, blocking group", "setting": "integrin αvβ3; 0.5 h", "value": "7.2±2.0", "unit": "% ID/g"},
      {"measurement": "Liver uptake, blocking group", "setting": "integrin αvβ3; 2 h", "value": "6.1±1.6", "unit": "% ID/g"},
      {"measurement": "Radioactivity in the blood, blocking group", "setting": "integrin αvβ3; 2 h", "value": "0.4±0.1", "unit": "% ID/g"},
      {"measurement": "U87MG tumor uptake, blocking", "setting": "integrin αvβ3; 2 h", "value": "0.4±0.1", "unit": "% ID/g"},
      {"measurement": "Liver uptake, blocking group", "setting": "integrin αvβ3; 4 h", "value": "5.3±1.3", "unit": "% ID/g"},
      {"measurement": "Radioactivity in the blood, blocking group", "setting": "integrin αvβ3; 4 h", "value": "0.4±0.1", "unit": "% ID/g"},
      {"measurement": "U87MG tumor uptake, blocking", "setting": "integrin αvβ3; 4 h", "value": "0.4±0.1", "unit": "% ID/g"},
      {"measurement": "Liver uptake, blocking group", "setting": "integrin αvβ3; 24 h", "value": "4.0±0.6", "unit": "% ID/g"},
      {"measurement": "Radioactivity in the blood, blocking group", "setting": "integrin αvβ3; 24 h", "value": "0.4±0.1", "unit": "% ID/g"},
      {"measurement": "U87MG tumor uptake, blocking", "setting": "integrin αvβ3; 24 h", "value": "0.4±0.1", "unit": "% ID/g"},
      {"measurement": "U87MG tumor uptake", "setting": "integrin αvβ3; 0.5 h", "value": "0.9±0.3", "unit": "% ID/g"},
      {"measurement": "tumor/muscle ratio", "setting": "integrin αvβ3; 0.5 h", "value": "3.8±0.9"},
      {"measurement": "U87MG tumor uptake", "setting": "integrin αvβ3; 2 h", "value": "1.0±0.2", "unit": "% ID/g"},
      {"measurement": "tumor/muscle ratio", "setting": "integrin αvβ3; 2 h", "value": "4.8±1.8"},
      {"measurement": "U87MG tumor uptake", "setting": "integrin αvβ3; 4 h", "value": "1.1±0.2", "unit": "% ID/g"},
      {"measurement": "tumor/muscle ratio", "setting": "integrin αvβ3; 4 h", "value": "5.8±1.4"},
      {"measurement": "U87MG tumor uptake", "setting": "integrin αvβ3; 24 h", "value": "0.7±0.2", "unit": "% ID/g"},
      {"measurement": "tumor/muscle ratio", "setting": "integrin αvβ3; 24 h", "value": "8.3±3.9"}
    ]}
  ]
}
